Holding throughout (conditions): protein: recombinant; tags: none stated (pET24a); label: 5' 32P
The target of series [1] is T1, Csa5 D30A/D33A (Thermoproteus tenax Kra1, UniProt G4RJZ0 1-130, D30A;D33A).
T1 sequence: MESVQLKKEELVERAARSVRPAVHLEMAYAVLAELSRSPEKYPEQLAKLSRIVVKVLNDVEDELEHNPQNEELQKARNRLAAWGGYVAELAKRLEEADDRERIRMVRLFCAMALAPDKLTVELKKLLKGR
The experiment in a line: EMSA; defined shift from 30 uM; EMSA: 100 mM HEPES/KOH pH 7, 10 mM beta-mercaptoethanol, 37 C 30 min, 6% native TBE PAGE; MST: 50 mM Tris-HCl pH 7.4, 150 mM NaCl, 0.05% Tween-20, 37 C 30 min. A general note: Mobility shift assays separate free from complexed probe on a gel.

Series [2] addresses T2, Csa5 D33A (Thermoproteus tenax Kra1, UniProt G4RJZ0 1-130, D33A).
T2 sequence: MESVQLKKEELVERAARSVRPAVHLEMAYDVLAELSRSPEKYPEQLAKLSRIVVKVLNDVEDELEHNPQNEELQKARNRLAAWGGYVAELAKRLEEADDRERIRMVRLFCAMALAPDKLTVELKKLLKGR
The experiment in a line: EMSA; shift from 15 uM; EMSA: 100 mM HEPES/KOH pH 7, 10 mM beta-mercaptoethanol, 37 C 30 min, 6% native TBE PAGE; MST: 50 mM Tris-HCl pH 7.4, 150 mM NaCl, 0.05% Tween-20, 37 C 30 min.

Series [3] concerns the target T3, Csa5 Y29A (Thermoproteus tenax Kra1, UniProt G4RJZ0 1-130, Y29A).
T3 sequence: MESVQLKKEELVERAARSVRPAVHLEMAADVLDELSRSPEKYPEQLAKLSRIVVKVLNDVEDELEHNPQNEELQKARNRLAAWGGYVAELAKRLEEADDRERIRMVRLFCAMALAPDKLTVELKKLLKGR
Described as above.

B1: non-target (NT) ssDNA 97 nt (ssDNA)
DNA: GTCGACTAATACGACTCACTATAGGCCTATCGCTTGTCCAACCGGGCTCCTCTATATGTCGTCATTAGCTTACCGCTGAGCAATAACTAGCAAGCTT
As to B1, the binding signal in series [1] was ~4 % of WT binding; in series [2] it was ~18 % of WT binding; in series [3], ~10 % of WT binding.

The values above are taken from PMC4141822.
